Assay results reported in US20180094051A1, “METHOD FOR INHIBITING LYMPHANGIOGENESIS BY ADMINISTRATION OF AN INHIBITOR OF THE CXCL12 PATHWAY” (Tsinghua University, priority 2012, published 2018).

Assays:
chemokine receptor CXCR4 [1] = test: Flow cytometry of CXCR4 on the surface of lymphatic endothelial cells; type: cell-based; conditions: starved mouse lymphatic endothelial cells, 100 ng/mL VEGF-C, 24 hours
Description: Mouse primary lymphatic endothelial cells at passage 2 or 3 in good condition were selected and seeded into four 6 cm Petri dishes. Two groups of cells were cultured normally, while the other two groups of cells were treated by replacing the medium with a medium free of serum and growth factors when the cell density reached 80%, and starved overnight. One of the two groups was cultured for 24 hours after the medium was replaced with a serum-free culture medium containing 100 ng/mL of VEGF-C. The four groups of cells were detected for the expression level of chemokine receptor CXCR4 on the cell surface by flow cytometry. The group of cells cultured normally was used as negative control.
The cells were treated with 0.25% disodium EDTA (Ethylenediaminetetraacetic Acid Disodium Salt, EDTA), then washed with ice-cold PBS. The cells were suspended and centrifuged at a low speed (600 g, 3 minutes; the low-speed centrifugations in this experiment all referred to centrifugation at this speed for this time). The cells were resuspended in 1 mL of PBS containing 10% goat serum and then incubated for 15 minutes. […]
Each group of cells were resuspended in 1 mL of PBS containing 2% goat serum, and then 1 μg of fluorescein-labeled secondary antibody was added. […] The expression of CXCR4 on cell surface was analyzed by flow cytometry (FACS Calibur Flow Cytometry System, Becton Dickinson).

chemokine receptor CXCR4 [2] = test: Immunoblotting of CXCR4 in lymphatic endothelial cells (incl. HIF-1α RNA interference); type: cell-based; conditions: mouse lymphatic endothelial cells, 100 ng/mL VEGF-C, 6, 12 and 24 hours
Description: Mouse primary lymphatic endothelial cells at passage 2 or 3 in good condition were selected, and starved overnight by replacing the culture medium with a fresh medium free of serum and growth factors. Then the medium was replaced with a medium containing 100 ng/mL of VEGF-C. The cells were incubated for 6, 12 and 24 hours, respectively, and then trypsinized and collected by centrifugation for detecting the expression level of chemokine receptor CXCR4 in the cells by immunoblotting.
The samples were subjected to SDS-PAGE (the concentration of separation gel was 15%). Protein bands were transferred to polyvinylidene difluoride (PVDF) membrane (purchased from Millipore) at 100 mA for 3 hours using an electroblotting device in ice bath. TBST buffer (20 mM Tris, pH7.4, 150 mM NaCl, 0.1% Tween-20) was formulated for preparing blocking solution, primary antibody solution and secondary antibody solution. The PVDF membrane was further incubated in blocking solution containing 5% skim milk for 1 hour at room temperature with gentle shaking. The membrane was then washed with TBST for 5 times, 5 minutes each. […]
The siRNA for interfering with the chemical synthesis of HIF-1α was purchased from Santa Cruz Biotechnology, and the negative control siRNA was purchased from GenePharma, Shanghai. […] HIF-1α knock-down efficiency was detected by immunoblotting. […]

B1: VEGF-C: Vascular Endothelial Growth Factor C, the major pro-lymphangiogenesis factor; purchased from R&D Systems (protein, UniProt P49767 112-227, looked up)
Vascular endothelial growth …: AHYNTEILKSIDNEWRKTQCMPREVCIDVGKEFGVATNTFFKPPCVSVYRCGGCCNSEGLQCMNTSTSYLSKTLFEITVPLSQGPKPVTISFANHTSCRCMSKLDVYRQVHSIIRR
With B1 the “cell surface CXCR4 protein level” value (chemokine receptor CXCR4 [1]) was “could indeed upregulate the expression level of chemokine receptor CXCR4” and the “expression level of CXCR4” value (chemokine receptor CXCR4 [2]) was “could up-regulate the expression of CXCR4 and HIF-1α”.
